Measurements reported in publication PMC6818130.

Columns and labels:
[1] = glycan lost
[2] = confocal immunofluorescence co-localisation with LAMP1; settings: glycan lost; control: wild-type GILT
[3] = Western blot, steady-state level, Tet-induced 293 cells; settings: glycan lost; control: wild-type GILT

Gamma-interferon-inducible lysosomal thiol reductase (GILT, IFI30): N63A
decreases: other: restriction of viral entry [1] | localisation_or_trafficking [2] | expression_or_secretion [3]

Gamma-interferon-inducible lysosomal thiol reductase (GILT, IFI30): N95A
decreases: other: restriction of viral entry [1] | localisation_or_trafficking [2] | expression_or_secretion [3]

Gamma-interferon-inducible lysosomal thiol reductase (GILT, IFI30): N108A
decreases: other: restriction of viral entry [1] | localisation_or_trafficking [2] | expression_or_secretion [3]
